For orientation: Kd means the free concentration of one partner at which half of the binding sites on the other are occupied at equilibrium, for simple one-to-one binding.

The target of test [1] is hRpn13 pleckstrin-like receptor for ubiquitin (Pru) domain (human, UniProt Q16186 1-150). The experiment in a line: ITC.
A further test deals with M1 diubiquitin (UniProt P0CG48 1-76; P0CG48 1-76). The experiment in a line: pull-down.

Sequence of hRpn13 pleckstrin-like receptor for ubiquitin (Pru) domain (Q16186 1-150): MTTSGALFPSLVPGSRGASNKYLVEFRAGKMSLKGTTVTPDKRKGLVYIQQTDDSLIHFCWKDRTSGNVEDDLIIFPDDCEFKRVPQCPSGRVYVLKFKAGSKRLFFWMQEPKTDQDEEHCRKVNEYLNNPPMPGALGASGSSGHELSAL

B1: hPLIC2 ubiquitin-like (UBL) domain (domain or fragment, human, UniProt Q9UHD9 33-107, looked up)
chain: IKVTVKTPKEKEEFAVPENSSVQQFKEAISKRFKSQTDQLVLIFAGKILKDQDTLIQHGIHDGLTVHLVIKSQNR
For B1, in test [1], binding was put at a Kd of 9.3 ± 0.5 µM.

B2: GST-hRpn13^Pru (domain or fragment, human)
chain: TTSGALFPSLVPGSRGASNKYLVEFRAGKMSLKGTTVTPDKRKGLVYIQQTDDSLIHFCWKDRTSGNVEDDLIIFPDDCEFKRVPQCPSGRVYVLKFKAGSKRLFFWMQEPKTDQDEEHCRKVNEYLNNPPMPGALGASGSSGHELSAL
As for B2, in the test with M1 diubiquitin, the binding result was “binds”.

The values above are taken from article PMC4972676 (Structure (London, England : 1993), 2016).
